Source: the supplement of paper PMC9112550, “Optimization of the antimicrobial peptide Bac7 by deep mutational scanning” (BMC Biology, 2022)

Tested on: Escherichia coli TOP10
Test: shrunken log2 fold change of peptide-encoding DNA abundance (4.5 h post-induction vs induction); higher = less antimicrobial activity (less host growth inhibition)
Conditions: time post-induction: 4.5 h; library: site-saturation at positions 5, 18, 19, 20
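Also: peptides expressed intracellularly from a pBAD plasmid library in pooled LB shake-flask culture, induced with 0.3% L-arabinose, DNA abundance read by NGS, three biological replicates, DESeq2 with apeglm shrinkage.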

Sequence	shrunken log2 fold change
RRIRRRPPRLPRPRPRPAYMPRP	0.0857
RRIRRRPPRLPRPRPRPCCNPRP	-0.029
RRIRRRPPRLPRPRPRPCDDPRP	-0.0703
RRIRRRPPRLPRPRPRPCDNPRP	0.0406
RRIRRRPPRLPRPRPRPCELPRP	-0.0595
RRIRRRPPRLPRPRPRPCEMPRP	0.36
RRIRRRPPRLPRPRPRPCEYPRP	0.0177
RRIRRRPPRLPRPRPRPCGYPRP	0.0658
RRIRRRPPRLPRPRPRPCHRPRP	-0.0875
RRIRRRPPRLPRPRPRPCHWPRP	0.092
RRIRRRPPRLPRPRPRPCIRPRP	-0.135
RRIRRRPPRLPRPRPRPCKPPRP	0.151
RRIRRRPPRLPRPRPRPCLDPRP	-0.167
RRIRRRPPRLPRPRPRPCLPPRP	-0.132
RRIRRRPPRLPRPRPRPCLVPRP	-0.096
RRIRRRPPRLPRPRPRPCLYPRP	-0.117
RRIRRRPPRLPRPRPRPCMIPRP	-0.108
RRIRRRPPRLPRPRPRPCMTPRP	0.409
RRIRRRPPRLPRPRPRPCMWPRP	0.313
RRIRRRPPRLPRPRPRPCPAPRP	0.392
RRIRRRPPRLPRPRPRPCPHPRP	-0.27
RRIRRRPPRLPRPRPRPCPSPRP	0.0616
RRIRRRPPRLPRPRPRPCQMPRP	0.0273
RRIRRRPPRLPRPRPRPCRGPRP	0.17
RRIRRRPPRLPRPRPRPCRHPRP	-0.105

Sequence	shrunken log2 fold change
RRIRRRPPRLPRPRPRPCRLPRP	0.144
RRIRRRPPRLPRPRPRPCRQPRP	0.0284
RRIRRRPPRLPRPRPRPCSEPRP	-0.0216
RRIRRRPPRLPRPRPRPCSKPRP	-0.123
RRIRRRPPRLPRPRPRPCTWPRP	-0.0877
RRIRRRPPRLPRPRPRPCVNPRP	-0.0549
RRIRRRPPRLPRPRPRPCWSPRP	-0.0452
RRIRRRPPRLPRPRPRPDARPRP	0.553
RRIRRRPPRLPRPRPRPDDFPRP	0.252
RRIRRRPPRLPRPRPRPDDTPRP	0.139
RRIRRRPPRLPRPRPRPDEHPRP	-0.0368
RRIRRRPPRLPRPRPRPDFEPRP	0.552
RRIRRRPPRLPRPRPRPDFTPRP	0.0748
RRIRRRPPRLPRPRPRPDGAPRP	0.766
RRIRRRPPRLPRPRPRPDIAPRP	-0.0619
RRIRRRPPRLPRPRPRPDIYPRP	0.0543
RRIRRRPPRLPRPRPRPDLEPRP	0.0267
RRIRRRPPRLPRPRPRPDLTPRP	0.521
RRIRRRPPRLPRPRPRPDMAPRP	0.373
RRIRRRPPRLPRPRPRPDMCPRP	0.019
RRIRRRPPRLPRPRPRPDMWPRP	0.103
RRIRRRPPRLPRPRPRPDNVPRP	-0.211
RRIRRRPPRLPRPRPRPDQLPRP	-0.0202
RRIRRRPPRLPRPRPRPDRNPRP	0.00393
RRIRRRPPRLPRPRPRPDSAPRP	0.288

Sequence	shrunken log2 fold change
RRIRRRPPRLPRPRPRPDSPPRP	0.28
RRIRRRPPRLPRPRPRPDVCPRP	-0.000628
RRIRRRPPRLPRPRPRPDWIPRP	-0.223
RRIRRRPPRLPRPRPRPDWRPRP	0.36
RRIRRRPPRLPRPRPRPEAVPRP	1.53
RRIRRRPPRLPRPRPRPECEPRP	0.323
RRIRRRPPRLPRPRPRPEDIPRP	0.06
RRIRRRPPRLPRPRPRPEFRPRP	0.179
RRIRRRPPRLPRPRPRPEIAPRP	0.84
RRIRRRPPRLPRPRPRPEIEPRP	0.216
RRIRRRPPRLPRPRPRPEIIPRP	0.0119
RRIRRRPPRLPRPRPRPEKQPRP	0.147
RRIRRRPPRLPRPRPRPELAPRP	0.927
RRIRRRPPRLPRPRPRPELCPRP	0.101
RRIRRRPPRLPRPRPRPELIPRP	0.0314
RRIRRRPPRLPRPRPRPEMCPRP	0.11
RRIRRRPPRLPRPRPRPEMFPRP	-0.151
RRIRRRPPRLPRPRPRPEMIPRP	-0.00643
RRIRRRPPRLPRPRPRPENSPRP	0.118
RRIRRRPPRLPRPRPRPEPPPRP	1.02
RRIRRRPPRLPRPRPRPERVPRP	0.125
RRIRRRPPRLPRPRPRPETAPRP	0.658
RRIRRRPPRLPRPRPRPETQPRP	0.164
RRIRRRPPRLPRPRPRPEVSPRP	0.214
RRIRRRPPRLPRPRPRPEYVPRP	0.0703

Sequence	shrunken log2 fold change
RRIRRRPPRLPRPRPRPFAYPRP	-0.0942
RRIRRRPPRLPRPRPRPFCIPRP	-0.174
RRIRRRPPRLPRPRPRPFCNPRP	-0.259
RRIRRRPPRLPRPRPRPFCRPRP	0.551
RRIRRRPPRLPRPRPRPFCVPRP	1.05
RRIRRRPPRLPRPRPRPFCYPRP	-0.00369
RRIRRRPPRLPRPRPRPFDIPRP	-0.0362
RRIRRRPPRLPRPRPRPFEMPRP	0.0983
RRIRRRPPRLPRPRPRPFFHPRP	0.154
RRIRRRPPRLPRPRPRPFGAPRP	0.153
RRIRRRPPRLPRPRPRPFGRPRP	0.114
RRIRRRPPRLPRPRPRPFHYPRP	-0.259
RRIRRRPPRLPRPRPRPFLCPRP	0.219
RRIRRRPPRLPRPRPRPFLGPRP	0.187
RRIRRRPPRLPRPRPRPFNYPRP	-0.0716
RRIRRRPPRLPRPRPRPFPWPRP	-0.0263
RRIRRRPPRLPRPRPRPFQAPRP	0.376
RRIRRRPPRLPRPRPRPFSGPRP	-0.32
RRIRRRPPRLPRPRPRPFTMPRP	-0.198
RRIRRRPPRLPRPRPRPFVCPRP	0.191
RRIRRRPPRLPRPRPRPFVWPRP	-0.218
RRIRRRPPRLPRPRPRPFWPPRP	0.312
RRIRRRPPRLPRPRPRPFWYPRP	-0.192
RRIRRRPPRLPRPRPRPFYGPRP	-0.0114
RRIRRRPPRLPRPRPRPFYYPRP	-0.204

Sequence	shrunken log2 fold change
RRIRRRPPRLPRPRPRPGADPRP	0.725
RRIRRRPPRLPRPRPRPGAIPRP	0.179
RRIRRRPPRLPRPRPRPGARPRP	0.507
RRIRRRPPRLPRPRPRPGCYPRP	0.17
RRIRRRPPRLPRPRPRPGECPRP	0.0146
RRIRRRPPRLPRPRPRPGFCPRP	0.37
RRIRRRPPRLPRPRPRPGFMPRP	0.252
RRIRRRPPRLPRPRPRPGFSPRP	0.131
RRIRRRPPRLPRPRPRPGFVPRP	0.423
RRIRRRPPRLPRPRPRPGGEPRP	0.356
RRIRRRPPRLPRPRPRPGGLPRP	0.289
RRIRRRPPRLPRPRPRPGHFPRP	-0.204
RRIRRRPPRLPRPRPRPGHGPRP	1.04
RRIRRRPPRLPRPRPRPGIIPRP	0.028
RRIRRRPPRLPRPRPRPGISPRP	0.0929
RRIRRRPPRLPRPRPRPGKLPRP	0.0788
RRIRRRPPRLPRPRPRPGKNPRP	0.16
RRIRRRPPRLPRPRPRPGKPPRP	0.293
RRIRRRPPRLPRPRPRPGKQPRP	0.254
RRIRRRPPRLPRPRPRPGLDPRP	0.161
RRIRRRPPRLPRPRPRPGLPPRP	0.33
RRIRRRPPRLPRPRPRPGMSPRP	0.226
RRIRRRPPRLPRPRPRPGNKPRP	-0.176
RRIRRRPPRLPRPRPRPGNMPRP	-0.266
RRIRRRPPRLPRPRPRPGPSPRP	0.442

Sequence	shrunken log2 fold change
RRIRRRPPRLPRPRPRPGQFPRP	0.0178
RRIRRRPPRLPRPRPRPGRMPRP	0.41
RRIRRRPPRLPRPRPRPGSVPRP	0.299
RRIRRRPPRLPRPRPRPGTDPRP	0.0719
RRIRRRPPRLPRPRPRPGTEPRP	0.443
RRIRRRPPRLPRPRPRPGVRPRP	0.318
RRIRRRPPRLPRPRPRPGVTPRP	0.303
RRIRRRPPRLPRPRPRPGWIPRP	0.442
RRIRRRPPRLPRPRPRPHAHPRP	-0.00194
RRIRRRPPRLPRPRPRPHALPRP	0.0116
RRIRRRPPRLPRPRPRPHAVPRP	0.251
RRIRRRPPRLPRPRPRPHCCPRP	0.208
RRIRRRPPRLPRPRPRPHDWPRP	0.312
RRIRRRPPRLPRPRPRPHEPPRP	-0.0636
RRIRRRPPRLPRPRPRPHEQPRP	0.0519
RRIRRRPPRLPRPRPRPHFMPRP	-0.141
RRIRRRPPRLPRPRPRPHGSPRP	-0.0609
RRIRRRPPRLPRPRPRPHGTPRP	0.00291
RRIRRRPPRLPRPRPRPHHGPRP	-0.249
RRIRRRPPRLPRPRPRPHHHPRP	-0.161
RRIRRRPPRLPRPRPRPHKWPRP	2.57
RRIRRRPPRLPRPRPRPHPLPRP	0.211
RRIRRRPPRLPRPRPRPHSRPRP	0.163
RRIRRRPPRLPRPRPRPHTFPRP	-0.108
RRIRRRPPRLPRPRPRPHWAPRP	-0.17
